Measurements taken from patent publication US6475768B1 (Forskarpatent I Syd AB, priority 2000, dated 2002).
Numbering of substitutions follows the chain as printed. Numbers in names are those of the source.

What was measured:
[1] = target: T1, Thermus thermophilus xylose isomerase (xylA), mutant 1024 (M1024) (Thermus thermophilus, UniProt P26997, E372G/F163L); assay: Kinetic characterisation of mutant xylose isomerase 1024 (xylose/glucose isomerase activity, xylitol inhibition); assay type: biochemical; settings: mutant 1024, crude enzyme, 10 mM MnCl2, pH 7.0
T1 construct: made in house; host or cells: E. coli HB101 (crude lysate)
T1 sequence (P26997 1-387 F163L/E372G): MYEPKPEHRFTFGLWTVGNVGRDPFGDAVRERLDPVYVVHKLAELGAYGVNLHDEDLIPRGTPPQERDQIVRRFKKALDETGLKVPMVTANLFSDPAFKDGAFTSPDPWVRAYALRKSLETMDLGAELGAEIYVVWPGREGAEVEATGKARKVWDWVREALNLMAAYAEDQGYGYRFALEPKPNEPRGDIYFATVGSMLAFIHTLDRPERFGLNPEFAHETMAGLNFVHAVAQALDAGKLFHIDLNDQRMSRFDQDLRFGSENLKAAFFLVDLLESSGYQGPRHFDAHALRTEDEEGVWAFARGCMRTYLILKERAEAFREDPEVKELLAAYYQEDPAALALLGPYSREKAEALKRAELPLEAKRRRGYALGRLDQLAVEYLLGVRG
Description: (§1) The cells were harvested by centrifugation in the stationary phase of growth and washed once with ice cold distilled water. Washed cells were resusprended in 100 mM triethanolamine, pH 7.0, 0.5 mg/ml lysozyme (130000 U/mg), 0.25 mg/ml DNase, and 1 mM phenylmethylsulphonyl fluoride (PMSF) in dimethylsulfoxide (DMSO). The suspensions were kept at room temperature for one hour and then on ice for two hours before being put in a freezer at −20° C. The cell lysates were thawed on ice, cell debris was removed by centrifugation (1300 rpm for 15 minutes at 4° C.) and the supernatants were used as the crude enzyme preparations.
(§2) Protein concentration was determined with the Bradford method (Bradford (1976)) using the Pierce protein reagent with bovine serum albumin as standard.
(§3) The reaction was terminated after 10 minutes by adding 150 μl 50% trichloroaceticacid. The reaction mixture was neutralized with 185 μl 2 M Na2CO3. The formed xylulose or fructose was measured on a COBAS MIRA (Roche) automated spectrophotometer via enzymatic reduction with 0.04 or 0.5 units of Sorbitol Dehydrogenase (purchased from Roche), respectively in the presence of 0.15 mM NADH at pH 7.0, 37° C. in 200 μl reaction volume. The rate of disappearance of NADH was followed at 340 nm and the concentration of D-xylulose or D-fructose was calculated using calibration curves. […]

[2] = target: T2, Thermus thermophilus xylose isomerase, wild type (nucleic acid sequence SEQ ID NO: 2) (Thermus thermophilus, UniProt P26997); settings: crude enzyme, 10 mM MnCl2, pH 7.0
T2 sequence (P26997 1-387): T1 sequence (P26997 1-387 F163L/E372G) with L163F, G372E

[3] = target: Thermus thermophilus xylose isomerase (xylA), mutant 1010 (M1010) (Thermus thermophilus, UniProt P26997); assay type: biochemical
Description: as §1, §2
(§4) The reaction was terminated after 10 minutes by adding 150 μl 50% trichloroaceticacid. The reaction mixture was neutralized with 185 μl 2 M Na2CO3. The formed xylulose or fructose was measured on a COBAS MIRA (Roche) automated spectrophotometer via enzymatic reduction with 0.04 or 0.5 units of Sorbitol Dehydrogenase (purchased from Roche), respectively in the presence of 0.15 mM NADH at pH 7.0, 37° C. in 200 μl reaction volume. The rate of disappearance of NADH was followed at 340 nm and the concentration of D-xylulose or D-fructose was calculated using calibration curves. […] The specific activity (U min^−1 mg^−1) was determined from the activity and the protein concentration of the crude enzyme preparations.
(§5) The kinetic parameters Vmax (μmol min^−1 mg^−1) and Km (mM) were determined from Michaelis-Menten plots of specific activities at various substrate concentrations by nonlinear regression analysis with Sigma Plot (SSPS Inc.) software. Typically, duplicate measurements were used to determine the Km value at 6-10 concentrations of the substrate, with a concentration range covering the value of Km.

[4] = target: T3, Thermus thermophilus xylose isomerase (xylA), mutant 1026 (M1026) (Thermus thermophilus, UniProt P26997, E372G); assay: Kinetic characterisation of mutant xylose isomerase 1026 (xylose/glucose isomerase activity, xylitol inhibition); assay type: biochemical; settings: mutant 1026, crude enzyme, 10 mM MnCl2, pH 7.0
T3 construct: made in house; host or cells: E. coli HB101 (crude lysate)
T3 sequence (P26997 1-387 E372G): T1 sequence (P26997 1-387 F163L/E372G) with L163F
Description: as §1, §2, §3

[5] = target: T4, Thermus thermophilus xylose isomerase (xylA), mutant 1021 (M1021) (Thermus thermophilus, UniProt P26997, E372G/V379A); assay: Kinetic characterisation of mutant xylose isomerase 1021 (xylose/glucose isomerase activity, xylitol inhibition); assay type: biochemical
T4 construct: made in house; host or cells: E. coli HB101 (crude lysate)
T4 sequence (P26997 1-387 E372G/V379A): T1 sequence (P26997 1-387 F163L/E372G) with L163F, V379A
Description: as §1, §2, §3

[6] = target: Thermus thermophilus xylose isomerase mutants (1010, 1021, 1024, 1026); assay: Inhibition constant for xylitol, mutants compared to wildtype; assay type: biochemical; settings: the mutants compared to the wildtype enzyme, xylose 20-400 mM
Description: as §1
as §4, with “preparations. […]” for “preparations.”

[7] = target: T2, Thermus thermophilus xylose isomerase, wild type (nucleic acid sequence SEQ ID NO: 2); assay: biochemical
[8] = substrate: OC1OC[C@@H](O)[C@H](O)[C@H]1O; assay: cells, lysate or membranes named; assay type: biochemical, Thermus thermophilus; settings: 10 mM MnCl2, pH 7.0
Description: as §1, §2
as §4, with “preparations. […] The temperature optimum for the mutants were roughly the same as for the wild type enzyme except for mutant 1021, which had ˜10° C. lower temperature optimum.” for “preparations.”
as §5

[9] = substrate: OC[C@H]1OC(O)[C@H](O)[C@@H](O)[C@@H]1O; assay: cells, lysate or membranes named; assay type: biochemical, Thermus thermophilus; settings: other: mutant 1021, crude enzyme, 10 mM MnCl2, pH 7.0
Description: as §1, §2
as §4, with “preparations. […] The temperature optimum for the mutants were roughly the same as for the wild type enzyme except for mutant 1021, which had ˜10° C. lower temperature optimum.” for “preparations.”
as §5

[10] = cited from earlier work
[11] = Xylose isomerase activity assay of crude enzyme preparations from E. coli HB101; assay type: biochemical
Description: The cells were harvested by centrifugation in the stationary phase of growth and washed once with ice cold distilled water. […] The suspensions were kept at room temperature for one hour and then on ice for two hours before being put in a freezer at −20° C. The cell lysates were thawed on ice, cell debris was removed by centrifugation (1300 rpm for 15 minutes at 4° C.) and the supernatants were used as the crude enzyme preparations. Protein concentration was determined with the Bradford method (Bradford (1976)) using the Pierce protein reagent with bovine serum albumin as standard. […] The reaction mixture was neutralized with 185 μl 2 M Na2CO3. […] The rate of disappearance of NADH was followed at 340 nm and the concentration of D-xylulose or D-fructose was calculated using calibration curves. […] The specific activity (U min^−1 mg^−1) was determined from the activity and the protein concentration of the crude enzyme preparations.

[12] = Effect of different bivalent cations on the activity of EDTA treated enzymes; assay type: biochemical; settings: EDTA treated enzyme, activity with 10 mM MnCl2 at 60° C. set to 100%
Description: Furthermore, the effect of different bivalent cations (10 mM) on the activity of EDTA treated enzymes was investigated. The specific activity with 10 mM MnCl2 at 60° C. was set to 100% for each enzyme.

[13] = substrate: OC1OC[C@@H](O)[C@H](O)[C@H]1O; assay: cells, lysate or membranes named; settings: other: wild type, crude enzyme, 10 mM MnCl2, pH 7.0
[14] = Effect of pH on the activity of the enzymes; assay type: biochemical; settings: 60° C., 700 mM D-xylose, 10 mM MnCl2, pH range 5-10
Description: The effect of pH on the activity of the enzymes was followed in the pH range 5-10 in a buffer prepared by mixing acetate, piperazine-N,N'-bis-(2-ethanolsulphonic acid) (PIPES), […] (HEPES) and glycine at final concentration 50 mM each as described by (Dekker at al. (1992) Appl. Mirobiol. Biotechnol. 36: 727-732). The pH was adjusted at 60° C. with NaOH.

[15] = mutant 1010, crude enzyme, 10 mM MnCl2, pH 7.0
[16] = other: mutant 1021, crude enzyme
[17] = other: mutant 1024, crude enzyme

Thermus thermophilus xylose isomerase (xylA), mutant 1010 (M1010), sequence (P26997 whole entry, change not shown): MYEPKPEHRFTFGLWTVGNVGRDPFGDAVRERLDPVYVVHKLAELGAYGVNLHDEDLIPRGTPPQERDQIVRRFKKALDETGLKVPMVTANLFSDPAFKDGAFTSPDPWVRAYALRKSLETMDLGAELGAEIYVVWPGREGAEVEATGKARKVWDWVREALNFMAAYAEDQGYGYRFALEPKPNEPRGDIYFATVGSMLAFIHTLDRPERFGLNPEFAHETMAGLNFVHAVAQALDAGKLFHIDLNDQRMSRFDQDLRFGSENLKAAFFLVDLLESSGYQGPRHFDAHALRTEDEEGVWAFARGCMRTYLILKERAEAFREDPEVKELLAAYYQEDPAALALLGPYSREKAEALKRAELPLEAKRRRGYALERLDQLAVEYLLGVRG

## OC[C@H]1OC(O)[C@H](O)[C@@H](O)[C@@H]1O (stereo partly drawn) [glucose]
[1]
  Vmax glucose: 0.54 µmol/min/mg
[2]
  Vmax glucose: 0.015 µmol/min/mg
[3]; [15]
  Vmax glucose: 0.0034 µmol/min/mg
[4]
  Vmax glucose: 0.18 µmol/min/mg

## OC1OC[C@@H](O)[C@H](O)[C@H]1O (stereo partly drawn) [xylose, D-xylose]
[3]; [15]
  Vmax xylose: 0.44 µmol/min/mg
[3]; read-out: Km xylose, mutant 1010, crude enzyme, 10 mM MnCl2, pH 7.0
  Km: 16.6 ± 2.2 mM

## OC[C@@H](O)[C@H](O)[C@@H](O)CO [xylitol]
[5]
  Ki: 33.2 mM
[3]; read-out: Ki xylitol, mutant 1010, xylose 20-400 mM, fixed xylitol concentrations
  Ki: 10.1 mM
[6]
  Ki for xylitol: higher Ki for xylitol
[7]
  Ki: 4.6 mM

B1: Thermus thermophilus xylose isomerase (xylA), mutant 1021 (M1021) (Thermus thermophilus HB8; E372G/V379A) (protein)
chain: T1 sequence (P26997 1-387 F163L/E372G) with L163F, V379A
notes: made in house; host or cells: E. coli HB101 (crude lysate)
[8]; [16]
  Km: 25.1 ± 4.0 mM
  Vmax: 0.84 µmol/min/mg
[9]
  Km: 52.0 ± 4.9 mM
  Vmax: 0.13 µmol/min/mg

B2: Thermus thermophilus xylose isomerase, wild type (nucleic acid sequence SEQ ID NO: 2) (Thermus thermophilus HB8) (protein)
chain: T1 sequence (P26997 1-387 F163L/E372G) with L163F, G372E
[10]
  activity at 30° C.: only trace activity
[11]; 30° C., 700 mM D-xylose, 10 mM MnCl2, pH 7.0, crude enzyme
  Vmax at 30° C.: 0.014 μmol/min^−1mg^−1
[11]; xylose as substrate, pH 7.0
  Temp. optimum: 85 °C
[12]; 10 mM Co2+
  Co^2+ (% relative activity): 87.9%
[12]; 10 mM Mg2+
  Mg^2+ (% relative activity): 73.8%
[13]
  Km: 3.44 ± 0.4 mM
  Vmax: 0.043 µmol/min/mg
[14]
  pH optimum: 6-7.5

B3: Thermus thermophilus xylose isomerase (xylA), mutant 1024 (M1024) (Thermus thermophilus HB8; E372G/F163L) (protein)
chain: T1 sequence (P26997 1-387 F163L/E372G)
notes: as for B1
[8]; [17]
  Km: 89.4 ± 8.4 mM
  Vmax: 3.08 µmol/min/mg
